Drawing on US6472171, this text covers resistance to pepsin digestion for one substance.

In this experiment the target is human α2(I) procollagen (human) (UniProt P08123). In words: cell-based or functional assay.
Chain of human α2(I) procollagen (human) (P08123 23-1366 limits assumed): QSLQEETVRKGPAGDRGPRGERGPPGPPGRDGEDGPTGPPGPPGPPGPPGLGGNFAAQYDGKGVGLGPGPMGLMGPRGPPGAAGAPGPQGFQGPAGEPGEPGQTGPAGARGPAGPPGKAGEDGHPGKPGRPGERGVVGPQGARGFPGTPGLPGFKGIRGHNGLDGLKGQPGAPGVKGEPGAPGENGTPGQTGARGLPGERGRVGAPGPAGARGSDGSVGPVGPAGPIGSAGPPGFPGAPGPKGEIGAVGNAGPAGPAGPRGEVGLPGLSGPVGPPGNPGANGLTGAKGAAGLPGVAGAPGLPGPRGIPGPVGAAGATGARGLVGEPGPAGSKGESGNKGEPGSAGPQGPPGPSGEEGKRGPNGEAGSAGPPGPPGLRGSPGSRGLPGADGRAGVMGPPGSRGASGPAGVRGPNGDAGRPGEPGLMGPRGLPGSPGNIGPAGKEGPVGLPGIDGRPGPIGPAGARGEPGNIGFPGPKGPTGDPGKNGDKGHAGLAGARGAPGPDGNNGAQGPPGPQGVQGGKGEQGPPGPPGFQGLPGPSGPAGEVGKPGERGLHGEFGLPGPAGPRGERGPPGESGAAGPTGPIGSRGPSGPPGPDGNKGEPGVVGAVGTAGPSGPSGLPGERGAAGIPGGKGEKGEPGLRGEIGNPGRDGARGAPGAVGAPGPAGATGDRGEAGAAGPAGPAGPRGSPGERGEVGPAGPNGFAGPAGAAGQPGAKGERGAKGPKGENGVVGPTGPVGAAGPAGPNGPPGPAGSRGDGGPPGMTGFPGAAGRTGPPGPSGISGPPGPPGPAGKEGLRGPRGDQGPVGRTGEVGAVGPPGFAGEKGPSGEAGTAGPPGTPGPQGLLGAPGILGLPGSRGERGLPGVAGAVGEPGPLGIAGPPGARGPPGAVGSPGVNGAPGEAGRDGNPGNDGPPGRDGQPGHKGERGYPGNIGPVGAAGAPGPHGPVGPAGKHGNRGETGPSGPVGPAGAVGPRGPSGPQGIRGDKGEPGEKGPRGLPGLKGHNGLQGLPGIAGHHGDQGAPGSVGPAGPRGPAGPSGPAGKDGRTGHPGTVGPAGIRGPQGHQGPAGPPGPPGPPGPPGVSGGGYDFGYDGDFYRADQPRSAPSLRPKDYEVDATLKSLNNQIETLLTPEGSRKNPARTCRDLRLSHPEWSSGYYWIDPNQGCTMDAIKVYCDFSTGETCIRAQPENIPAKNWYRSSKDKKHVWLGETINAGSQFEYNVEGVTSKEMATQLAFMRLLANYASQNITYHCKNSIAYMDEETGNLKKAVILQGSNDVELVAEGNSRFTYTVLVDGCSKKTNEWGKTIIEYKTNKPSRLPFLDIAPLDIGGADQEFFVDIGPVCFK

As to “human α1(I) procollagen (from UniProt P02452 23-1464)”, the resistance to pepsin digestion at increasing temperatures (SDS-PAGE) is 38 ° C.
